The text below walks through data of patent publication US20240102068A1, “C-GLYCOSYLTRANSFERASE VARIANTS AND USE THEREOF” (KOREA ADVANCED INSTITUTE OF SCIENCE AND TECHNOLOGY, priority 2021, published 2024).

Data set [1] addresses T1, Gentiana triflora GtCGT (GtUF6CGT1) variant V93Q/Y193F, SEQ ID NO: 61 (Gentiana triflora, UniProt A0A0B6VIJ5, V93Q/Y193F).
T1 sequence (A0A0B6VIJ5 1-477 V93Q/Y193F): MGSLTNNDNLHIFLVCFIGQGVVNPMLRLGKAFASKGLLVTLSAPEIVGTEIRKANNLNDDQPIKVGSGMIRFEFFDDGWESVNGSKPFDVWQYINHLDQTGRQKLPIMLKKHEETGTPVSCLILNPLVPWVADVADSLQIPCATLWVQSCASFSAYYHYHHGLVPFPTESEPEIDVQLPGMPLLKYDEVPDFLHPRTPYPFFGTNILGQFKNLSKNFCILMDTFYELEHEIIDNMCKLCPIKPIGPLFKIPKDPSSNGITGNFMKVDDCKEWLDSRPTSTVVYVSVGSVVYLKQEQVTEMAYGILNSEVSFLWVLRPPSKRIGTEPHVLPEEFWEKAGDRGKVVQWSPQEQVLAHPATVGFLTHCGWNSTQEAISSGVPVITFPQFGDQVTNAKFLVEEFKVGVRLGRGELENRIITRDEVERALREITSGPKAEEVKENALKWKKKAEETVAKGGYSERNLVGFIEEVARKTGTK
Kind of data set: enzyme kinetics of purified N-terminal 6xHis GtCGT V93Q/Y193F, FK to dcII, UDP-Glo Glycosyltransferase Assay. The class given is biochemical. The method, then: Each plasmid was constructed by PCR amplification of pCDF-GtCGT and pCDF-GtCGTmut using GtCGT_N_His_IV_F and GtCGT_N_His_IV_R primers, followed by blunt-end ligation through DpnI treatment and T4 PNK and T4 ligase treatment. Each of the two plasmids thus constructed was transformed into the E. coli BL21(DE3) strain, followed by seed culture in a test tube containing 10 mL of LB and then culture at 37° C. until OD600 reached 0.8 in a flask containing 500 mL of LB. After treatment with 1 mM IPTG for enzyme expression, additional culture was carried out at 20° C. for 16 hours, and cells were collected by centrifugation and then resuspended in 30 mL of lysis buffer (50 mM NaH2PO4, 0.3 M NaCl, 10 mM imidazole, pH 7.5). The cells were disrupted by ultrasonication and then centrifuged at 10,000 rpm and 4° C. for 40 minutes to obtain a supernatant containing water-soluble proteins. […]
Here, a UDP-Glo Glycosyltransferase Assay Kit (Promega) was used to determine the extent of reaction. Since this kit enables measurement of free UDP generated as a reaction byproduct by luminescence, 200 μL of an enzyme reaction solution containing 0.1 μM enzyme and various concentrations of FK (50 mM HEPES, 0.1 mM UDP-glucose, 5 mM MgCl2, pH 7.5) was allowed to react at 25° C. for 1 hour, 25 μL thereof was taken out, and the amount of emitted light was measured using the kit.

Substrate in data set [2]: Cc1c(C(=O)O)c(O)cc2c1C(=O)c1c(O)cc(O)cc1C2=O
Kind of data set: enzyme kinetics of DnrF P217K. The class given is biochemical, Streptomyces peucetius. Conditions: other: means ± SD, n = 3.

Regarding `Cc1c(C(=O)O)c(O)cc2c1C(=O)c1c(O)cc(O)cc1C2=O` [FK, flavokermesic acid], the “KM value decreased compared to GtCGT” value in data set [1] (decrease vs wild-type GtCGT) amounted to 19.5%. In addition, in data set [1] (increase vs wild-type GtCGT), the “Vmax value increased compared to GtCGT” value is 18.2%.

B1: Streptomyces peucetius DnrF (aklavinone 12-hydroxylase, SEQ ID NO: 2) variant P217K (Streptomyces peucetius; P217K) (protein)
chain: VALTKPDVDVLVVGGGLGGLSTALFLARRGARVLLVERHASTSVLPKAAGQNPRTMELFRFGGVADEILATDDIRGAQGDFTIKVVERVGGRVLHSFAESFEELVGATEQCTPMPWALAPQDRVEPVLVAHAAKHGAEIRFATELTSFQAGDDGVTARLRDLGTGAESTVSARYLVAADGPRSAIRESLGITRHGHGTLAHFMGVIFEADLTAVVPKGSTGWYYLQHPDFTGTFGPTDRPNRHTFYVRYDPERGERPEDYTPQRCTELIRLAVDAPGLVPDILDIQAWDMAAYIADRWREGPVLLVGDAAKVTPPTGGMGGNTAIGDGFDVAWKLAAVLRGEAGERLLDSYGAERSLVSRLVVDESLAIYAQRMAPHLLGSVPEERGTAQVVLGFRYRSTAVAAEDDDPEPTEDPRRPSGRPGFRAPHVWIEQDGTRRSTVELFGDCWVLLAAPEGGAWGQAAARAAADLGVRLDVHLVGRDVAAPSGELTRTYGIGRAGASLVRPDGVVAWRTAVAPGAEAQDQLSTLLTRLLAR
notes: purification details not in the excerpts
For the molecule B1, in data set [2], the Km is 43.31 ± 2.64 µM, the Vmax was 1.01 µM/min and the Vmax/Km is 0.0234 min⁻¹.
